Results from the supplement of paper PMC9732359.
± gives the uncertainty stated by the source.

Assay: protein stability index of a GFP-peptide fusion (yeast GPS) (PSI 1-4); higher = more stable; sorted into four equal gates, so the index is relative within each strain
How it was run: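 Sequencing reads from sorted gates were used to score each peptide. The library consisted of tiled 17-residue yeast protein peptides fused downstream of GFP on a Cherry-expressing plasmid, pooled and carried in yeast. Mid-log cultures in leucine-free medium were split into four equal gates by GFP/Cherry ratio, and each gate's plasmids were PCR-amplified and Illumina-sequenced. The protein stability index adds up, over all gates, the read frequency multiplied by the gate number.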

| Sequence | protein stability index (doa10∆) | protein stability index (pdr5∆) | protein stability index (san1∆) | protein stability index (ubr1∆) |
| --- | --- | --- | --- | --- |
| VDAYRRLENKLSEIESL [SRP68] | 1.4 ± 0.078 | 1.48 ± 0.073 | 1.57 ± 0.11 | 1.68 ± 0.062 |
| IDESLFNLLILSLNKRI [YCG1] | 2.75 ± 0.072 | 2.25 ± 0.062 | 2.03 ± 0.077 | 2.15 ± 0.033 |
| RRGYQVYREVCAACHSL [CYT1] | 2.22 ± 0.073 | 1.94 ± 0.059 | 1.47 ± 0.085 | 1.59 ± 0.039 |
| TRDEETTKLAFLVEYEG [SIR4] | 3.02 ± 0.14 | 3.06 ± 0.095 | – | 2.96 ± 0.13 |
| SQTTLVQFGLNEETFTV [ARP9] | 2.85 ± 0.086 | 2.92 ± 0.072 | 2.77 ± 0.069 | 2.64 ± 0.059 |
| EVAVPDRVAKVLTYPEK [RPO31] | 2.97 ± 0.075 | 3.06 ± 0.1 | 2.88 ± 0.078 | 3.23 ± 0.078 |
| PESQGQHEQQKQQEQLE [YMR153W/NUP53] | 3.4 ± 0.083 | 3.37 ± 0.066 | 3.24 ± 0.06 | 3.26 ± 0.072 |
| YASKAVPHYNRLDSYKV [RPL25] | 2.11 ± 0.14 | 2.7 ± 0.1 | 2.34 ± 0.12 | 1.47 ± 0.11 |
| PNNASSHISASASPHLA [SNF2] | 2.53 ± 0.046 | 2.66 ± 0.044 | 2.51 ± 0.069 | 2.88 ± 0.039 |
| SEILIISSLMFDEEFDP [IRR1] | 2.5 ± 0.094 | 2.63 ± 0.095 | 2.67 ± 0.098 | 2.97 ± 0.07 |
| SSIDKKSSILTVLQKNS [YML103C/NUP188] | 1.79 ± 0.063 | 2.42 ± 0.083 | 2.4 ± 0.067 | 2.46 ± 0.058 |
| CGGINDSIPYPQIVKLF [ECM29] | 1.56 ± 0.07 | 1.31 ± 0.06 | 1.96 ± 0.086 | 1.71 ± 0.049 |
| IDEDKLYPSFKPIYKDT [SSN2] | 2.99 ± 0.095 | 3.04 ± 0.11 | 3 ± 0.053 | 3.17 ± 0.092 |
| KTFNKIQSQVFESLYNS [BRR2] | 1.57 ± 0.061 | 2.04 ± 0.064 | 1.25 ± 0.12 | 1.73 ± 0.054 |
| IAVLIELLEERFQDSNP [YCS4] | 1.62 ± 0.032 | 2.06 ± 0.058 | 2.66 ± 0.063 | 2.82 ± 0.069 |
| EKGENPSCVYNLIGVIT [UBP6] | 2.64 ± 0.072 | 2.79 ± 0.093 | 3.07 ± 0.081 | 3.06 ± 0.1 |
| NSISDFLGEQVNEPTKN [RPN1] | 3.32 ± 0.12 | 3.15 ± 0.13 | 3.34 ± 0.1 | 3.18 ± 0.091 |
| PYAQKPLQGIFHNAVFN [QCR8] | 2.75 ± 0.057 | 2.52 ± 0.046 | 2.35 ± 0.045 | 2.57 ± 0.038 |
| YISKIGEKIDSNKPIFL [SWI1] | 3.02 ± 0.084 | 2.86 ± 0.06 | 3.01 ± 0.07 | 3.19 ± 0.09 |
| ETTIDDLPISSTDNEAI [SMC1] | 2.67 ± 0.069 | 2.7 ± 0.087 | 2.66 ± 0.053 | 2.97 ± 0.058 |
| TVVGNASFGKNLQIRQL [DSN1] | – | 2.7 ± 0.17 | – | 2.97 ± 0.2 |
| MHLMALHIHGSSNPLGI [COB] | 2.31 ± 0.07 | 2.1 ± 0.059 | 2.1 ± 0.052 | 2.32 ± 0.046 |
| ESDSKLQCHISGTTNFM [UBP6] | 2.63 ± 0.23 | 2.69 ± 0.26 | 2.92 ± 0.28 | 3.08 ± 0.15 |
| IEKFEQVPDSLDDQIFV [RPN6] | 3.31 ± 0.079 | 3.35 ± 0.065 | 3.53 ± 0.053 | 3.27 ± 0.079 |
| KKSEEKLREKVNDVELA [MTW1] | 3.08 ± 0.13 | 3.03 ± 0.13 | 3.05 ± 0.14 | 3.06 ± 0.21 |
| AKSTVETFISSMTATAD [RIP1] | 1.89 ± 0.073 | 2.13 ± 0.077 | 2.93 ± 0.061 | 1.48 ± 0.05 |
| YQELFIQPKNSDDQQEA [YML103C/NUP188] | 2.68 ± 0.066 | 2.31 ± 0.061 | 2.71 ± 0.053 | 2.64 ± 0.054 |

| Sequence | protein stability index (doa10∆) | protein stability index (pdr5∆) | protein stability index (san1∆) | protein stability index (ubr1∆) |
| --- | --- | --- | --- | --- |
| VGEEETSQKMKKMVYVL [SRP54] | 3.31 ± 0.11 | 3.38 ± 0.11 | 3.31 ± 0.078 | 3.17 ± 0.077 |
| NNSAPNNTNNANSSITP [YJL041W/NSP1] | 3.01 ± 0.089 | 2.97 ± 0.11 | 2.73 ± 0.11 | 2.72 ± 0.11 |
| SLNLQYVNYEISTAKAW [YML103C/NUP188] | 2.6 ± 0.055 | 2.93 ± 0.082 | 2.55 ± 0.074 | 2.69 ± 0.058 |
| VLSALEGKSVDELITEG [RPP2A] | – | 3.23 ± 0.15 | 3.41 ± 0.073 | 3.45 ± 0.28 |
| EARFWHLVELLLVFRNA [YDL116W/NUP84] | 2.69 ± 0.079 | 2.1 ± 0.065 | 2.06 ± 0.085 | 2.02 ± 0.064 |
| ESSKLMTVTKVSLPEGS [BRR2] | 2.93 ± 0.22 | 2.33 ± 0.11 | 3.19 ± 0.1 | 2.63 ± 0.073 |
| ETPEGQACGLVKNLSLM [RPB2] | 1.67 ± 0.13 | 2.25 ± 0.12 | 3.01 ± 0.11 | 3.03 ± 0.13 |
| ALPNIENDIIKLSDSKT [BRR2] | 2.79 ± 0.054 | 3.16 ± 0.055 | 2.82 ± 0.044 | 3.23 ± 0.054 |
| ALSLHREILCYSKDAKE [FAS2] | 1.78 ± 0.028 | 1.76 ± 0.027 | 1.85 ± 0.044 | 1.82 ± 0.021 |
| PKLLDALNKISKYYPGV [SNU114] | 3.08 ± 0.076 | 2.37 ± 0.072 | 2.8 ± 0.065 | 2.88 ± 0.044 |
| KIESEDDYILSGESVMD [SRB4] | 3.4 ± 0.17 | 3.5 ± 0.1 | 3.38 ± 0.15 | 2.96 ± 0.075 |
| LIEPLPTESYLQYIIHD [BRR2] | 2.42 ± 0.083 | 2.96 ± 0.065 | 2.58 ± 0.096 | 2.49 ± 0.049 |
| NVSIVANYIKERTKNAQ [SMC4] | 3.02 ± 0.12 | 3.14 ± 0.065 | 2.91 ± 0.05 | 3.18 ± 0.061 |
| AGTEANAVSFDTTFSDF [SRB4] | 3.03 ± 0.042 | 3.06 ± 0.045 | 3.036 ± 0.029 | 3.02 ± 0.038 |
| IVAKYDPPIIIFINYKQ [PRP28] | 2.47 ± 0.075 | 1.77 ± 0.068 | 1.98 ± 0.12 | 1.96 ± 0.048 |
| TISSKPDILATDLIREK [YCS4] | – | 2.54 ± 0.25 | 3.4 ± 0.26 | 3.09 ± 0.066 |
| YIDIRTNNVLRKLGLLG [MTW1] | 1.49 ± 0.053 | 1.76 ± 0.069 | 1.64 ± 0.15 | 1.5 ± 0.056 |
| DSFENYFNQLKPYYFSN [RPN12] | 2.66 ± 0.083 | 2.95 ± 0.1 | 2.97 ± 0.058 | 3.02 ± 0.056 |
| GTGRAVARIPRVGGGGT [RPL4A] | – | – | 2.68 ± 0.21 | – |
| EPIKLEPVKEYTFKTSM [YMR129W/POM152] | 2.22 ± 0.098 | 2.29 ± 0.08 | 1.99 ± 0.17 | – |
| VVMAMYNPKMIDDRDYV [RET1] | 3.36 ± 0.27 | – | – | 3.45 ± 0.27 |
| IVNVNFMKSVIRSREAF [DIS3] | 2.75 ± 0.065 | 2.77 ± 0.062 | 2.2 ± 0.098 | 2.31 ± 0.04 |
| GNSESKVEKGVNIEPFN [LIN1] | 3.7 ± 0.13 | 3.67 ± 0.17 | 3.46 ± 0.08 | 3.13 ± 0.079 |
| AINIMNRSNDALIKFME [FAS2] | 3.19 ± 0.15 | 3.45 ± 0.15 | 3.26 ± 0.093 | 3.38 ± 0.15 |
| KLNKKLQHLRSRCHLVT [SRP68] | 3.23 ± 0.11 | 3.34 ± 0.09 | 3.3 ± 0.039 | 3.27 ± 0.077 |
| VTDKYTAKKTNRSAYDS [YDL088C/ASM4] | 2.81 ± 0.089 | 3.26 ± 0.081 | 2.96 ± 0.14 | 2.79 ± 0.043 |
